Series [1] deals with T1, RGG-GFP-RGG, TXTL-expressed (UniProt D0PV95 1-168).
T1 chain: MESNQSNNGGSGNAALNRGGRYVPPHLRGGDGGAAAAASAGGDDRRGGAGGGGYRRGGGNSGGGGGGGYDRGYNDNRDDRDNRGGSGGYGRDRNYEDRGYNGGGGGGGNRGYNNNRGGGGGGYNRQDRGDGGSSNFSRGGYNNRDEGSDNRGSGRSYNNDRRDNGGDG
As to the kind of experiment: confocal fluorescence co-localization to condensates.

In series [2] the target is T2, RGG-GFP-RGG (His), purified (UniProt D0PV95 1-168).
T2 chain: T1 chain
Described as above.

As to UUUUUUUUUUUUUUU (ssRNA) [Cy5-U15], the binding result in series [1] and in series [2] was “binds” throughout.

The values above are taken from publication PMC10104018.
